We go through 7 substances from publication PMC8181125.

What all share (conditions): glycan lost; control: wild type
The nature of data set [1]: Western blot of transfected HEK293A cell lysates. Background: A western blot detects proteins with antibodies after separation by electrophoresis.
Data set [2] is described as follows: Western blot of core domain in conditioned medium.
A short description of data set [3]: immunofluorescence with Golgi marker TGN46, HEK293A.
Data set [4] can be described thus: Western blot of full-length PDGF-C in conditioned medium.
Data set [5] in a line: immunofluorescence colocalisation with ER marker ERP72, HEK293A.

Turning to PDGF-C (full-length, PC-FL): N25A, the expression_or_secretion entry in data set [1] and in data set [4] was “no change” each time. Moreover, the “other: proteolytic processing” value in data set [2] is listed as “no change”. Further, the localisation_or_trafficking result in data set [3] and in data set [5] was “no change” each time.

“PDGF-C (full-length, PC-FL): N25A + N55A”: the expression_or_secretion entry in data set [1] and in data set [4] was “no change” throughout.

On to “PDGF-C (full-length, PC-FL): N25A + N254A”, for which the expression_or_secretion result in data set [1] and in data set [4] was “no change” in each case. Also, in data set [2], the “other: proteolytic processing” value is listed as “abolishes”.

For the substance PDGF-C (full-length, PC-FL): N55A, the expression_or_secretion entry in data set [1] and in data set [4] was “no change” in each case. Also, the “other: proteolytic processing” value in data set [2] is on record as “no change”. Also, the localisation_or_trafficking result in data set [3] and in data set [5] was “no change” each time.

For the substance “PDGF-C (full-length, PC-FL): N55A + N254A”, the expression_or_secretion result in data set [1] and in data set [4] was “no change” throughout. The “other: proteolytic processing” value in data set [2] is “abolishes”.

In the case of PDGF-C (full-length, PC-FL): N254A, the expression_or_secretion result in data set [1] and in data set [4] was “no change” throughout. Moreover, the localisation_or_trafficking result in data set [3] and in data set [5] was “no change” in each case.

“PDGF-C (full-length, PC-FL): triple NA mutant”: the expression_or_secretion entry in data set [1] and in data set [4] was “no change” each time. The “other: proteolytic processing” value in data set [2] is listed as “abolishes”.
